US20240190956A1 (published 2024)

Target: folate receptor alpha (FR-α) (human, UniProt P15328 25-234)
Test: FACS binding on T47D cells

Sequence of folate receptor alpha (FR-α) (P15328 25-234): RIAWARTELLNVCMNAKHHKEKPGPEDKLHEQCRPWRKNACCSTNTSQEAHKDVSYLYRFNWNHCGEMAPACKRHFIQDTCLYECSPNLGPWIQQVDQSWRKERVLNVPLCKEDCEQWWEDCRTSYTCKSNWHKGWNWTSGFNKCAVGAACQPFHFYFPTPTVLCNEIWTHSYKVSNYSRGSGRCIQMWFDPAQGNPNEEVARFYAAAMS

B1: huMOV19-sSPDB-Compound A (antibody)
heavy: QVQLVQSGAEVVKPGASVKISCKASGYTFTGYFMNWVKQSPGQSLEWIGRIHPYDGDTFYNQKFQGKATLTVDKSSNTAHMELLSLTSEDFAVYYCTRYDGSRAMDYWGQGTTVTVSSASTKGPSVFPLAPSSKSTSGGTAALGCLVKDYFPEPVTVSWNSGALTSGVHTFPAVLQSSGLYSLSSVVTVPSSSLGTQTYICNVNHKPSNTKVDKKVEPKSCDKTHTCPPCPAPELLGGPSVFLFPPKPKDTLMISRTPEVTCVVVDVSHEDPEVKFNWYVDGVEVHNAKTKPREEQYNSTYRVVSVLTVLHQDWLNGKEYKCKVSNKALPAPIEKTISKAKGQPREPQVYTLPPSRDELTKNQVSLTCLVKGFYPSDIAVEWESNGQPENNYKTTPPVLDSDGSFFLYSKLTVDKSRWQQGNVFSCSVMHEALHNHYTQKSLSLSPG
light: DIVLTQSPLSLAVSLGQPAIISCKASQSVSFAGTSLMHWYHQKPGQQPRLLIYRASNLEAGVPDRFSGSGSKTDFTLTISPVEAEDAATYYCQQSREYPYTFGGGTKLEIKRTVAAPSVFIFPPSDEQLKSGTASVVCLLNNFYPREAKVQWKVDNALQSGNSQESVTEQDSKDSTYSLSSTLTLSKADYEKHKVYACEVTHQGLSSPVTKSFNRGEC
modifications: Compound A linked through a sulfo-SPDB linker to amino groups of lysine residues, positions not given; Compound A linked through a sulfo-SPDB linker to amino groups of lysine residues, positions not given; average 2.4 Compound A per antibody
Question: With B1 as the binder, how does the EC50 read?
Answer: Its EC50 is 0.426 nM.

B2: huMOV19-NTS #2 (antibody)
heavy: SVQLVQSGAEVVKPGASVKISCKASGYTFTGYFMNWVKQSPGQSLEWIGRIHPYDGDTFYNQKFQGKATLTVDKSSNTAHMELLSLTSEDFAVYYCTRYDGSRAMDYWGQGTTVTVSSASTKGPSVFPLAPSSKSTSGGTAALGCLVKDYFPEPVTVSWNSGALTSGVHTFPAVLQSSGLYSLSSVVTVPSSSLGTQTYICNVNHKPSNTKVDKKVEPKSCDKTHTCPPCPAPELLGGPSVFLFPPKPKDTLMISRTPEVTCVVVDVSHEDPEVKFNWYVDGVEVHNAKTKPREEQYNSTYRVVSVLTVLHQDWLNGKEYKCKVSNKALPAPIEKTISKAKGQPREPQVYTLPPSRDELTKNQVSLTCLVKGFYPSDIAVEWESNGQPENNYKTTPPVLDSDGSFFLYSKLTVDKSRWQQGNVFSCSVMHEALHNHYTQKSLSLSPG
light: B1 light
Question: How did the EC50 turn out when B2 was run?
Answer: The EC50 was 0.243 nM.

B3: huMOV19-NTS #2-Linker1-Compound A (antibody)
heavy: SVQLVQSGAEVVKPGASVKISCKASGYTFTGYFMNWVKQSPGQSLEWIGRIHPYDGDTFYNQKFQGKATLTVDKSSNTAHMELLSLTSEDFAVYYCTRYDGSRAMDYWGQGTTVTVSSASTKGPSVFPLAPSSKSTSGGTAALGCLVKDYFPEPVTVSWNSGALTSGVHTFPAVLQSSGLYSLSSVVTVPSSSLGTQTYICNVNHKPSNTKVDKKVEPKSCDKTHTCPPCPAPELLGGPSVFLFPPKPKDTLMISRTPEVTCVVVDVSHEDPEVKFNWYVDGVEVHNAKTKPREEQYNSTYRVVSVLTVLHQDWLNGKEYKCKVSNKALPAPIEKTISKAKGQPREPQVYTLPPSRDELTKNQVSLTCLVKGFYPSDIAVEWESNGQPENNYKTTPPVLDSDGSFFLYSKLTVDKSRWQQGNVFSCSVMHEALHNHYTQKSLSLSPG
light: B1 light
modifications: N-terminal Ser oxidized to an aldehyde and linked through Linker1 to Compound A (sulfonated DGN462); two Compound A molecules per antibody
Question: B3 was tested. Which EC50 did it give?
Answer: The EC50 was 0.881 nM.

B4: huMOV19 (antibody)
heavy: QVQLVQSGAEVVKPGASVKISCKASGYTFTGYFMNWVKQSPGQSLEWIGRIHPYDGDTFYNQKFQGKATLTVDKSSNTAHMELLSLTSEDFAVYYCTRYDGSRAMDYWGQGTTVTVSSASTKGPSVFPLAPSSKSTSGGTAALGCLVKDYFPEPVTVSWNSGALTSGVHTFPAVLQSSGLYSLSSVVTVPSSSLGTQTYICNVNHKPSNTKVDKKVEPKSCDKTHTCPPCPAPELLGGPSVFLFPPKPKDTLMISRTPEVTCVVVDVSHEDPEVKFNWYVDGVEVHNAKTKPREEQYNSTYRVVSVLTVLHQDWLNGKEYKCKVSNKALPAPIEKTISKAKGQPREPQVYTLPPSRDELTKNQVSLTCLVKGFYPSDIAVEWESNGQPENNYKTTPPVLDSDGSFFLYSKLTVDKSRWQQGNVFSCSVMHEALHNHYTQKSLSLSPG
light: B1 light
Question: With B4 as the binder, how does the EC50 read?
Answer: The EC50 was 0.323 nM.
